Laboratory results as given in patent US20150232507A1 (ERA BIOTECH S A, published 2015).
Substitutions are numbered along the chain they refer to. Numbers in names are those of the source.

Legend:
Test in all cases: cell-based or functional assay
[1] = biological target: T1, G8^C: Gp41.8^C-[C-extein]linker-Trx-EFRSHHHHHH fusion protein
T1 chain: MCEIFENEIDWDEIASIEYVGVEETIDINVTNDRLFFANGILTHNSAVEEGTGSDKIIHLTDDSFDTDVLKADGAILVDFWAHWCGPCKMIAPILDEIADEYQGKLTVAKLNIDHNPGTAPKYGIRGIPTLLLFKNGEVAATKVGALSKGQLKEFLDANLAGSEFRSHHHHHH

[2] = biological target: T1, G8^C: …
[3] = biological target: T1, G8^C: …
[4] = biological target: T2, I1^C: IMPDH1^C-[C-extein]linker-Trx-EFRSHHHHHH fusion protein
T2 chain: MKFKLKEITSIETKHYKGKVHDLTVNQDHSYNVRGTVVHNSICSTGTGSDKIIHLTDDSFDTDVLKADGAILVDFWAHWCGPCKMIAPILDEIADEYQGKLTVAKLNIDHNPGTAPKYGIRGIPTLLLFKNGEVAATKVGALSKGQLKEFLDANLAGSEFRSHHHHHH

[5] = biological target: T2, I1^C: …
[6] = biological target: T2, I1^C: …
[7] = biological target: T3, G1^C: Gp41.1^C-[C-extein]linker-Trx-EFRSHHHHHH fusion protein
T3 chain: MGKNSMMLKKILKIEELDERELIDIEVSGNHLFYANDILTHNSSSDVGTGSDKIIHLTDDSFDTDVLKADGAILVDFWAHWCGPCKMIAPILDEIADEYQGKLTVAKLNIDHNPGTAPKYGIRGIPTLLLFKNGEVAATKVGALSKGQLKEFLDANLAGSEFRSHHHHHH

[8] = biological target: T3, G1^C: …
[9] = biological target: T3, G1^C: …
[10] = biological target: T4, N1^C: NrdJ1^C-[C-extein]linker-Trx-EFRSHHHHHH fusion protein
T4 chain: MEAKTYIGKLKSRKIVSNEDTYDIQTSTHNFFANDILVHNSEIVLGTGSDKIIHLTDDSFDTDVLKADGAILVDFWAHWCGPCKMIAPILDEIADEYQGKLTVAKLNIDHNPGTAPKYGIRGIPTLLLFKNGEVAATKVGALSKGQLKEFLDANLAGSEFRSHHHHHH

[11] = biological target: T4, N1^C: …
[12] = biological target: T4, N1^C: …

B1: G8^N: StreptagII-gpD-linker[N-extein]-Gp41.8^N-GGHHHHHH fusion protein (other)
chain: MASWSHPQFEKASKETFTHYQPQGNSDPAHTATAPGGLSAKAPAMTPLMLDTSSRKLVAWDGTTDGAAVGILAVAADQTSTTLTFYKSGTFRYEDVLWPEAASDETKKRTAFAGTAISIVGSSQLNRCLSLDTMVVTNGKAIEIRDVKVGDWLESECGPVQVTEVLPIIKQPVFEIVLKSGKKIRVSANHKFPTKDGLKTINSGLKVGDFLRSRAKGGHHHHHH
splice product formation at 5 minutes, 25 °C [1]: ~90%
trans-splicing speed, fold faster than Npu DnaE, 25 °C [1]: 6 fold
trans-splicing first order rate constant k, 25 °C [2]: 0.017 s⁻¹
trans-splicing t1/2, 25 °C [2]: 0.667 min

B2: G8^N(C1A): StreptagII-gpD-linker[N-extein]-Gp41.8^N(C1A)-GGHHHHHH fusion protein (other)
chain: B1 chain with C128A
C-terminal cleavage k, 25 °C [3]: 9.5e-05 s⁻¹
C-terminal cleavage t1/2, 25 °C [3]: 122 min

B3: I1^N: StreptagII-gpD-linker[N-extein]-IMPDH1^N-GGHHHHHH fusion protein (other)
chain: MASWSHPQFEKASKETFTHYQPQGNSDPAHTATAPGGLSAKAPAMTPLMLDTSSRKLVAWDGTTDGAAVGILAVAADQTSTTLTFYKSGTFRYEDVLWPEAASDETKKRTAFAGTAISIVGSGIGGGCFVPGTLVNTENGLKKIEEIKVGDKVFSHTGKLQEVVDTLIFDRDEEIISINGIDCTKNHEFYVIDKENANRVNEDNIHLFARWVHAEELDMKKHLLIELEGGHHHHHH
splice product formation at 5 minutes, 25 °C [4]: ~90%
trans-splicing speed, fold faster than Npu DnaE, 25 °C [4]: 7 fold
trans-splicing first order rate constant k, 25 °C [5]: 0.02 s⁻¹
trans-splicing t1/2, 25 °C [5]: 0.567 min

B4: I1^N(C1A): StreptagII-gpD-linker[N-extein]-IMPDH1^N(C1A)-GGHHHHHH fusion protein (other)
chain: B3 chain with C128A
C-terminal cleavage k, 25 °C [6]: 0.000365 s⁻¹
C-terminal cleavage t1/2, 25 °C [6]: 31.6 min

B5: G1^N: StreptagII-gpD-linker[N-extein]-Gp41.1^N-GGHHHHHH fusion protein (other)
chain: MASWSHPQFEKASKETFTHYQPQGNSDPAHTATAPGGLSAKAPAMTPLMLDTSSRKLVAWDGTTDGAAVGILAVAADQTSTTLTFYKSGTFRYEDVLWPEAASDETKKRTAFAGTAISIVGSTRSGYCLDLKTQVQTPQGMKEISNIQVGDLVLSNTGYNEVLNVFPKSKKKSYKITLEDGKEIICSEEHLFPTQTGEMNISGGLKEGMCLYVKEGGHHHHHH
splice product formation at 5 minutes, 25 °C [7]: ~90%
trans-splicing activity in 4 M urea after 1 hour, relative to optimized conditions [7]: ~50%
trans-splicing activity, fold faster than Npu DnaE, 12 °C [7]: 6 fold
trans-splicing activity, fold faster than Npu DnaE, 25 °C [7]: 15 fold
trans-splicing activity, fold faster than Npu DnaE, 37 °C [7]: 10 fold
trans-splicing speed, fold faster than Npu DnaE, 25 °C [7]: 31 fold
trans-splicing first order rate constant k, 25 °C [8]: 0.057 s⁻¹
trans-splicing t1/2, 25 °C [8]: 0.2 min

B6: G1^N(C1A): StreptagII-gpD-linker[N-extein]-Gp41.1^N(C1A)-GGHHHHHH fusion protein (other)
chain: B5 chain with C128A
C-terminal cleavage k, 25 °C [9]: 0.000595 s⁻¹
C-terminal cleavage t1/2, 25 °C [9]: 19.4 min

B7: N1^N: StreptagII-gpD-linker[N-extein]-NrdJ1^N-GGHHHHHH fusion protein (other)
chain: MASWSHPQFEKASKETFTHYQPQGNSDPAHTATAPGGLSAKAPAMTPLMLDTSSRKLVAWDGTTDGAAVGILAVAADQTSTTLTFYKSGTFRYEDVLWPEAASDETKKRTAFAGTAISIVGSGTNPCCLVGSSEIITRNYGKTTIKEVVEIFDNDKNIQVLAFNTHTDNIEWAPIKAAQLTRPNAELVELEINTLHGVKTIRCTPDHPVYTKNRDYVRADELTDDDELVVAIGGHHHHHH
splice product formation at 5 minutes, 25 °C [10]: ~90%
trans-splicing speed, fold faster than Npu DnaE, 25 °C [10]: 9 fold
trans-splicing first order rate constant k, 25 °C [11]: 0.062 s⁻¹
trans-splicing t1/2, 25 °C [11]: 0.333 min

B8: N1^N(C1A): StreptagII-gpD-linker[N-extein]-NrdJ1^N(C1A)-GGHHHHHH fusion protein (other)
chain: B7 chain with C128A
C-terminal cleavage k, 25 °C [12]: 0.00027 s⁻¹
C-terminal cleavage t1/2, 25 °C [12]: 43 min
